According to patent publication US20240269676A1:

Columns and labels:
[1] = target: gp100 antigen presented on the surface of B16F10 (gp100+) mouse melanoma cells treated with 1 µM hgp100 peptide (human) (UniProt P40967); experiment: microfluidic shear detachment of primary mouse T cells from hgp100-pulsed B16F10 monolayer
[2] = target: gp100 antigen presented on the surface of B16F10 (gp100+) mouse melanoma cells treated with 1 µM hgp100 peptide (human) (UniProt P40967); experiment: cell-based or functional assay

Sequence “T cell receptor of TCR-transgenic Thy1.1+ pmel-1 (Pmel) mouse T cells” has a percent of T cells remaining bound at 1.9 Pa [1] of 19.4% and an IFN-γ secretion (ELISA of overnight T cell-B16F10 co-culture media) [2] of 2120 pg/mL.
